These results are taken from the Immune Epitope Database (IEDB).

In experiment [1] the target is HLA-A*02:19. Briefly: IEDB peptide-MHC binding, purified MHC/direct/fluorescence; filed as Kd, often an IC50 or EC50 that approximates it; ≥ and ≤ were set here for values at or beyond the usual limits of such assays. The note with it: source organism: Zaire ebolavirus.
For experiment [2], the target named is HLA-A*02:12. The experiment is described as above. As to conditions: source organism: Zaire ebolavirus.
Experiment [3] addresses HLA-A*23:01. The description is as above. The note with it: source organism: Zaire ebolavirus.
In experiment [4] the target is HLA-A*02:03. The description is as above. As to conditions: source organism: Zaire ebolavirus.
For experiment [5], the target named is HLA-A*03:01. The description is as above. As to conditions: source organism: Zaire ebolavirus.
For experiment [6], the target named is HLA-A*02:16. The description is as above. The note with it: source organism: Zaire ebolavirus.
Experiment [7] addresses HLA-A*01:01. Described as above. As to conditions: source organism: Zaire ebolavirus.
In experiment [8] the target is HLA-A*29:02. The experiment is described as above. The note with it: source organism: Zaire ebolavirus.
The target of experiment [9] is HLA-A*68:02. The description is as above. The note with it: source organism: Zaire ebolavirus.
The target in experiment [10] is HLA-A*02:11. Described as above. As to conditions: source organism: Zaire ebolavirus.
Experiment [11] deals with HLA-A*24:03. Described as above. As to conditions: source organism: Zaire ebolavirus.
Experiment [12] has as its target HLA-B*15:01. Briefly: IEDB peptide-MHC binding, purified MHC/competitive/fluorescence; ≥ and ≤ were set here for values at or beyond the usual limits of such assays. As to conditions: source organism: Zaire ebolavirus.
Experiment [13] has as its target HLA-A*01:01. Described as above. The note with it: source organism: Zaire ebolavirus.
The target of experiment [14] is HLA-A*11:01. The experiment is described as above. The note with it: source organism: Zaire ebolavirus.
In experiment [15] the target is HLA-A*02:01. Described as above. The note with it: source organism: Zaire ebolavirus.
Experiment [16] has as its target HLA-B*39:01. Briefly: IEDB peptide-MHC binding, purified MHC/competitive/fluorescence; filed as Kd, often an IC50 or EC50 that approximates it; ≥ and ≤ were set here for values at or beyond the usual limits of such assays.
The target in experiment [17] is HLA-B*18:01. The description is as above.
Experiment [18] concerns the target HLA-A*69:01. The description is as above.
Experiment [19] has as its target HLA-B*15:01. Described as above.
Experiment [20] deals with HLA-B*57:01. The description is as above. The note with it: source organism: Zaire ebolavirus.
For experiment [21], the target named is HLA-B*51:01. The description is as above. The note with it: source organism: Zaire ebolavirus.
Experiment [22] concerns the target HLA-B*46:01. Described as above.
Experiment [23] addresses HLA-A*26:01. The description is as above. The note with it: source organism: Zaire ebolavirus.
The target in experiment [24] is HLA-B*27:03. The experiment is described as above. As to conditions: source organism: Zaire ebolavirus.
For experiment [25], the target named is HLA-A*02:01. Described as above.
Experiment [26] concerns the target HLA-B*15:17. Described as above. As to conditions: source organism: Human immunodeficiency virus 1.
For experiment [27], the target named is HLA-A*01:01. Described as above.
Experiment [28] has as its target HLA-A*30:01. Described as above.
The target of experiment [29] is HLA-B*08:02. The description is as above.
Experiment [30] addresses HLA-A*11:01. Described as above. As to conditions: source organism: Human immunodeficiency virus 1.
The target in experiment [31] is HLA-B*27:05. Described as above. As to conditions: source organism: Corynebacterium glutamicum R.
Experiment [32] has as its target HLA-B*58:01. The description is as above. The note with it: source organism: Corynebacterium glutamicum R.
Experiment [33] has as its target HLA-A*03:01. The description is as above. The note with it: source organism: Corynebacterium glutamicum R.
Experiment [34] addresses HLA-B*35:01. Described as above. The note with it: source organism: Corynebacterium glutamicum R.
For experiment [35], the target named is HLA-B*07:02. The experiment is described as above. As to conditions: source organism: Corynebacterium glutamicum R.
Experiment [36] addresses HLA-B*08:01. Described as above. As to conditions: source organism: Corynebacterium glutamicum R.
Experiment [37] addresses HLA-A*31:01. The experiment is described as above. The note with it: source organism: Corynebacterium glutamicum R.
Experiment [38] has as its target HLA-B*40:01. The experiment is described as above. The note with it: source organism: Corynebacterium glutamicum R.
Experiment [39] addresses HLA-B*15:02. The experiment is described as above.
In experiment [40] the target is HLA-C*14:02. Put plainly: IEDB peptide-MHC binding, purified MHC/direct/fluorescence; filed as Kd, often an IC50 or EC50 that approximates it; ≥ and ≤ were set here for values at or beyond the usual limits of such assays. As to conditions: source organism: Bacillus anthracis str. A0488.
The target of experiment [41] is HLA-C*15:02. The experiment is described as above. The note with it: source organism: Bacillus anthracis str. A0488.
The target of experiment [42] is HLA-C*12:03. Described as above. As to conditions: source organism: Bacillus anthracis str. A0488.
Where [43] appears, read: source organism: Zaire ebolavirus.
The mark [44] stands for this setting: source organism: Human immunodeficiency virus 1.
The mark [45] stands for this setting: source organism: Corynebacterium glutamicum R.

As usually defined, the Kd is the concentration at which binding is half-saturated. A higher Kd goes with a looser complex. In general, IC50 refers to the concentration needed to halve the response being measured. The low end stands for greater potency in that assay, the high end for weaker potency in that assay.

As for ATEDPSSGY, the Kd in [1], in experiment [2], in [3], in experiment [4], in experiment [5] and in [6] was at least 20 µM each time. Besides, the Kd in [7] is 0.438 µM; in experiment [8], at least 20 µM; in experiment [9], at least 20 µM; in experiment [10], at least 20 µM; in experiment [11] it was at least 20 µM; in [16] (setting [43]), at least 20 µM. Besides, the dissociation constant (Kd) in experiment [17] (setting [43]), in experiment [18] (setting [43]), in [19] (setting [43]), in experiment [20], in [21] and in [22] (setting [43]) was at least 20 µM throughout. In addition, the equilibrium dissociation constant (Kd) in [23], in experiment [24] and in experiment [25] (setting [43]) was at least 20 µM throughout. Also, the IC50 in [12] is at least 97.2 µM; in experiment [13], at least 154 µM; in experiment [14], 49.6 µM; in experiment [15], at least 379 µM.

With GTEELKSLY, the equilibrium dissociation constant (Kd) in experiment [16] (setting [44]) was at least 20 µM; in experiment [26] it was 0.0595 µM; in experiment [27] (setting [44]), 0.0163 µM; in [28] (setting [44]), at least 20 µM; in experiment [29] (setting [44]) it was at least 20 µM; in experiment [30], at least 20 µM.

Regarding RYDDGQSIY, the equilibrium dissociation constant (Kd) in experiment [31], in [32], in experiment [17] (setting [45]), in experiment [18] (setting [45]), in experiment [19] (setting [45]) and in experiment [22] (setting [45]) was at least 20 µM in each case. Moreover, the Kd in experiment [33] was at least 20 µM; in [34], at least 20 µM; in [35], at least 20 µM; in experiment [36] it was at least 20 µM; in experiment [27] (setting [45]), 19.7 µM; in [28] (setting [45]), at least 20 µM. The Kd in [37], in experiment [29] (setting [45]), in [25] (setting [45]) and in [38] was at least 20 µM each time.

In experiment [39] (source organism: Vibrio parahaemolyticus RIMD 2210633), YIRGVCSAF displayed a Kd of 0.0807 µM.

Turning to YLARYSGSM, the Kd was 0.03 µM in [40], at least 20 µM in experiment [41], 0.3 µM in experiment [42] and 0.0123 µM in experiment [39] (source organism: Bacillus anthracis str. A0488).
